Data: patent publication US7164008B2, “Isolated complexes of endotoxin and MD-2” (priority 2003, dated 2007)

Tested on: MD-2
Test: Formation of [^14C]-LOS-MD-2 complex monitored by gel filtration chromatography
Format: binding, human
Details: 30 min, 37° C., Sephacryl S100
Method: In FIG. 2, a bioactive complex (Mr˜25,000) containing MD-2 and [^14C]-LOS is formed by incubation of [^14C]-LOS-sCD14 with wt, but not C95Y, MD-2. In FIG. 2A, dialyzed control insect cell medium (◯) or medium containing wt (♦) or C95Y ( ? ) MD-2 was incubated for 30 min, 37° C. with (1:1 vol/vol) [^14C]-LOS-sCD14 in HBSS+, 10 mM HEPES and chromatographed on Sephacryl S100. Column fractions were analyzed for [^14C]-LOS. Identical results were obtained in analytical (5 ng [^14C]-LOS/ml+200 μl culture medium) or more preparative runs (reagents concentrated 20×). […] Cell activation was measured by IL-8 accumulation. […]
Purified [^14C]-LOSagg or [^14C]-LOS-sCD14 (3 ng LOS/ml)+/−indicated proteins (30 ng/ml LBP, 250 ng/ml sCD14, 60 μl culture medium) were incubated at 37° C. for 30 min. After this incubation, samples were analyzed by gel filtration chromatography to monitor formation of [^14C]-LOS-MD-2 and by incubation with HEK/TLR4 cells to measure cell activation.
Columns of Sephacryl HR S200 (1.6 cm×30 cm) or S100 (1.0 cm×60 cm) were pre-equilibrated in 10 mM HEPES, HBSS^++/−0.1% HSA. […] Aliquots of the collected fractions were analyzed by liquid scintillation spectroscopy using a Beckman LS liquid scintillation counter to detect [^14C]-LOS. […]

B1: wt MD-2: soluble polyhistidine-tagged recombinant wild-type MD-2 in conditioned insect cell culture medium (protein)
chain: QKQYWVCNSSDASISYTYCDKMQYPISINVNPCIELKRSKGLLHIFYIPRRDLKQLYFNLYITVNTMNLPKRKEVICRGSDDDYSFCRALKGETVNTTISFSFKGIKFSKGKYKCVVEAISGSPEEMLFCLEFVILHQPNSNHHHHHH
reaction with [^14C]-LOS-sCD14 to generate new Mr˜25,000 [^14C]-LOS-containing complex: efficiently generated
